Values of other authors in PMC3931982.
pKd: −log10 of the molar value.

Target: RXR LBD (Homo sapiens) (UniProt P19793)

pKd: 8.40
Substance: RXR LBD (from UniProt P19793)
